In EP4722231A1 (Shanxi Jinbo Bio-Pharmaceutical Co., Ltd., dated 2025):

What was measured:
Test in all cases: cell-based or functional assay
[1] = biological target: SARS-CoV-2 BA.2.75 S protein (SARS-CoV-2 (BA.2.75 variant))
[2] = biological target: SARS-CoV-2 XBB.1.5 S protein (SARS-CoV-2 (XBB.1.5 variant))
[3] = biological target: SARS-CoV-2 Omicron BA.2 S protein (SARS-CoV-2 (BA.2 variant))
[4] = biological target: SARS-CoV-2 BA.2.86 S protein (SARS-CoV-2 (BA.2.86 variant))
[5] = biological target: SARS-CoV-2 EG.5 S protein (SARS-CoV-2 (EG.5 variant))

Binder | Inhibitory activity, IC50 (nM), pseudovirus infection of Caco2 cells (luciferase) [1] | Inhibitory activity, IC50 (nM), pseudovirus infection of Caco2 cells (luciferase) [2] | Inhibitory activity, IC50 (nM), pseudovirus infection of Caco2 cells (luciferase) [3] | Inhibitory activity, IC50 (nM), pseudovirus infection of Caco2 cells (luciferase) [4] | Inhibitory activity, IC50 (nM), pseudovirus infection of Caco2 cells (luciferase) [5]
SLDQINVTFLDLEYEMKKLEEAIKKLEESYIDLKEL [prokaryote-expressed polypeptide reEK1 (recombinant polypeptide HCoV-EK1, TEKB)] | 420 nM | 137 nM | 354 nM | 298 nM | 331 nM
Ac-SLDQINVTFLDLEYEMKKLEEAIKKLEESYIDLKEL-NH2 [chemically synthesized polypeptide EK1] | 438 nM | 291 nM | 228 nM | 392 nM | 401 nM
